Bounds are passed on as bounds.

What all share (assay): cell-based or functional assay
One assay has as its target T1, rat RXFP1 (rat, UniProt Q6R6I6 1-758).
T1 sequence (looked up): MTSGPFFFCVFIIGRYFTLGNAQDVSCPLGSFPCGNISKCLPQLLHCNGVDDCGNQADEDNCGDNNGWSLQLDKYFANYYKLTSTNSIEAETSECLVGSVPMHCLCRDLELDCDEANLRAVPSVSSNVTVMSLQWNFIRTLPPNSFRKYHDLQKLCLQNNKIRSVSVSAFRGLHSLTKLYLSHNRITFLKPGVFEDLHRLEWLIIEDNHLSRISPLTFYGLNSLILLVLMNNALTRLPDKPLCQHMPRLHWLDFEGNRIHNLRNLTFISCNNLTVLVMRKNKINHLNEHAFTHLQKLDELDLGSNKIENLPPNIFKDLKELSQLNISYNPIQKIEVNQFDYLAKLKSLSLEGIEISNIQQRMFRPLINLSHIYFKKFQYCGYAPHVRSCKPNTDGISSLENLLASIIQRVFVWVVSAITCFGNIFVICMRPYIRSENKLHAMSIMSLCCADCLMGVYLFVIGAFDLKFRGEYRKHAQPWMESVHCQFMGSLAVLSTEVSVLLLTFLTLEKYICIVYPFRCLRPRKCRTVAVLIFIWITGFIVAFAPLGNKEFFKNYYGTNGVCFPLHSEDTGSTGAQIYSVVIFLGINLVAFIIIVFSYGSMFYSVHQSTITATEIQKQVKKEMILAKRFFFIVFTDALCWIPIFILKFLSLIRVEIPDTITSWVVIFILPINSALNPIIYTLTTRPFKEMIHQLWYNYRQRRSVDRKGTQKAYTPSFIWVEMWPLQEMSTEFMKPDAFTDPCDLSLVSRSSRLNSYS

Another assay concerns the target T2, human RXFP3 (human, UniProt Q9NSD7 1-469).
T2 sequence (looked up): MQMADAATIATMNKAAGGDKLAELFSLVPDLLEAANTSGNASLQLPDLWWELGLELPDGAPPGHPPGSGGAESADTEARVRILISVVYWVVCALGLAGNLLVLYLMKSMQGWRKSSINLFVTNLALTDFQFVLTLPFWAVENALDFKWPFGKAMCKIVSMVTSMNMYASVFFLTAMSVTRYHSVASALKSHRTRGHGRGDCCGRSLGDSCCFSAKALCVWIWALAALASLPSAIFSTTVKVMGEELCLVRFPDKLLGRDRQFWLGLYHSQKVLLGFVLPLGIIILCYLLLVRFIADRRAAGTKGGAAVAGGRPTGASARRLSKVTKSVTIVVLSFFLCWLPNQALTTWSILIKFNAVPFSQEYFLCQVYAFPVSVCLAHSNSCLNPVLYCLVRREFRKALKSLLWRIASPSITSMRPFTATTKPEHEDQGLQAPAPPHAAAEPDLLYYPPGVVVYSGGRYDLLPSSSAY

Assay [1] addresses T3, human RXFP1 (human, UniProt Q9HBX9 1-757).
T3 sequence (looked up): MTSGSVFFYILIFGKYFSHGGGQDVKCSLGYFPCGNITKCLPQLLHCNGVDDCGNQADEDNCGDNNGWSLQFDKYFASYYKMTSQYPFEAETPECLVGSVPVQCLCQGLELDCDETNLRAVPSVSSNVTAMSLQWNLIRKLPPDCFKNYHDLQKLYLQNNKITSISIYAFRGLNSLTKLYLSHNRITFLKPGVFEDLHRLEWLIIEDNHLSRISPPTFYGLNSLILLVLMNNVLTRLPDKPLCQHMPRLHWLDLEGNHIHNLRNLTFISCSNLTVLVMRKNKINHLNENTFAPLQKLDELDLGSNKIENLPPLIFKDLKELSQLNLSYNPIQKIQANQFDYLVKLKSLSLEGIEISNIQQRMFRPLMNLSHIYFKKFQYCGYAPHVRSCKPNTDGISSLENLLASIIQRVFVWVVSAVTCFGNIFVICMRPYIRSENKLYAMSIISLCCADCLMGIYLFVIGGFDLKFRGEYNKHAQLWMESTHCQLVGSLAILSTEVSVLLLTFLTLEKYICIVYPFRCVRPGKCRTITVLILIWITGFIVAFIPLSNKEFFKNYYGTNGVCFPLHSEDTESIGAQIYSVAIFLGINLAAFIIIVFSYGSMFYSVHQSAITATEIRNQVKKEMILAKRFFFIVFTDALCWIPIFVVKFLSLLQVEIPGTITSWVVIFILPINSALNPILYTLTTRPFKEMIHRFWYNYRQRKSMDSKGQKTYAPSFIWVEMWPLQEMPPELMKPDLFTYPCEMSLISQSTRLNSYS

For a further assay, the target named is dog RXFP1 (dog).
Another assay has as its target human RXFP4 (human, UniProt Q8TDU9 1-374).
Assay [2] addresses T3, human RXFP1. This is another data set of the same source.

Sequence of human RXFP4 (Q8TDU9 whole entry): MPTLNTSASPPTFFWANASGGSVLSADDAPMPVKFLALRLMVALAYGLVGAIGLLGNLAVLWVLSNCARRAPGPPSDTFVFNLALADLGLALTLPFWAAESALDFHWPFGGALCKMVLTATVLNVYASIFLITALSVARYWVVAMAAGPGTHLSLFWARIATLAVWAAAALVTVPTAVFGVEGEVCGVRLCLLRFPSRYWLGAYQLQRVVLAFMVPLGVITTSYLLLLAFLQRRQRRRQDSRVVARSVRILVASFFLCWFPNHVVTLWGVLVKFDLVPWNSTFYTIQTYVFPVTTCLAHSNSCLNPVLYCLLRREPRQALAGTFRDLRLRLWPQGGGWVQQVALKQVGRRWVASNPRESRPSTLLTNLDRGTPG

B1: RLX-A-AQ1-20KPEG (ligand)
chain 1: XLYSALANKCCHVGCTKRSLARFC
chain 2: ASWMEEVIKLCGRELVRAQIAICGMSTWS
modifications: pACF (para-acetylphenylalanine) at position 1 of the A chain, linked to a 20 kDA PEG via an oxime linkage
Take B1: in the assay with rat RXFP1, the “Potency Ratio (RLX-A-AQ1-20KPEG/WT-RLX), cAMP assay, rat RXFP1/CHO-K1 cells” value was found to be 32 fold; the “RLX-A-AQ1-20KPEG Potency Ratio (hRXFP 1-1.0), cAMP assay” value (from here on “RLX-A-AQ1-20KPEG Potency Ratio”) came out at 0.34 ratio; the “cAMP Assay EC50 (nM), rat RXFP1/CHO-K1 cells” value is 1.1 nM. Moreover, in the assay with human RXFP3, the “cAMP Assay EC50 (nM), inhibition of forskolin-induced cAMP, human RXFP3/CHO-K1 cells” value was more than 3000 nM. Also, in the assay with human RXFP1 [1], the “Potency Ratio (RLX-A-AQ1-20KPEG/WT-RLX), cAMP assay, THP-1 cells” value turned out to be 26 fold; the “Potency Ratio (RLX-A-AQ1-20KPEG/WT-RLX), cAMP assay, hRXFP1/CHO-K1 cells” value is 32 fold; the “RLX-A-AQ1-20KPEG Potency Ratio” value worked out at 1 ratio; the “cAMP Assay EC50 (nM), THP-1 cells” value worked out at 7.6 nM. For the same molecule, the “cAMP Assay EC50 (nM), hRXFP1/CHO-K1 cells” value in the assay with human RXFP1 [1] was found to be 3.2 nM. Besides, in the assay with dog RXFP1, the “Potency Ratio (RLX-A-AQ1-20KPEG/WT-RLX), cAMP assay, dog RXFP1/CHO-K1 cells” value was found to be 27 fold; the “RLX-A-AQ1-20KPEG Potency Ratio” value was found to be 4.7 ratio; the “cAMP Assay EC50 (nM), dog RXFP1/CHO-K1 cells” value turned out to be 15 nM. The “cAMP Assay EC50 (nM), inhibition of forskolin-induced cAMP, human RXFP4/CHO-K1 cells” value with human RXFP4 was more than 3000 nM. Also, the “Functional Assay Raw EC50 Values [ng/mL]; cAMP increase in THP-1 cells, 11/5/2010” value in the assay with human RXFP1 [2] was 38 ng/mL.

For the origin of these results see patent publication US20240189392A1 (AMBRX, published 2024).
